Source: paper PMC10572367, “The Generation of a Nanobody-Based ELISA for Human Microsomal Epoxide Hydrolase” (International Journal of Molecular Sciences, 2023)

Tests used:
[1] = target: T1, recombinant human microsomal epoxide hydrolase (Homo sapiens, UniProt P07099, final four amino acid residues of mEH (LERQ) were mutated to the Factor Xa …); experiment: ELISA; direct ELISA testing the titer of the candidate nanobodies; format not described; conditions: both partners purified
T1 construct: human microsomal epoxide hydrolase (mEH), Uniprot P07099; Extracted from microsomes with beta-DDM; also called mEH; human mEH; source: Tni (Trichoplusia ni) insect cells, baculovirus, purified (Ni-NTA, size exclusion chromatography)

[2] = target: T2, human mEH in human tissue whole extracts (Homo sapiens, endogenous, UniProt P07099); experiment: ELISA; sandwich ELISAs of formats A, B and C (mAb capture, native or biotinylated MQ30 detection) on human whole tissue extracts diluted 10^3, 10^4 and 10^5-fold; conditions: one partner purified
T2 construct: human microsomal epoxide hydrolase, endogenous in human tissue extracts (adrenal, esophagus, liver, pancreas, ovary, heart, hippocampus); also called bioactive mEH in the crude extracts; source: endogenous, whole tissue extracts of human commercial tissue samples (BioChain Institute)

rat mEH (rat) = target: T3, rat mEH (rat) (UniProt P07687); experiment: ELISA; cross-reactivity in the format A sandwich (mAb capture, MQ30 detection): epoxide hydrolases spiked at 1000 ng mL^-1 in PBS, read against the human mEH standard curve; a signal needs capture by the mAb as well as MQ30
T3 sequence: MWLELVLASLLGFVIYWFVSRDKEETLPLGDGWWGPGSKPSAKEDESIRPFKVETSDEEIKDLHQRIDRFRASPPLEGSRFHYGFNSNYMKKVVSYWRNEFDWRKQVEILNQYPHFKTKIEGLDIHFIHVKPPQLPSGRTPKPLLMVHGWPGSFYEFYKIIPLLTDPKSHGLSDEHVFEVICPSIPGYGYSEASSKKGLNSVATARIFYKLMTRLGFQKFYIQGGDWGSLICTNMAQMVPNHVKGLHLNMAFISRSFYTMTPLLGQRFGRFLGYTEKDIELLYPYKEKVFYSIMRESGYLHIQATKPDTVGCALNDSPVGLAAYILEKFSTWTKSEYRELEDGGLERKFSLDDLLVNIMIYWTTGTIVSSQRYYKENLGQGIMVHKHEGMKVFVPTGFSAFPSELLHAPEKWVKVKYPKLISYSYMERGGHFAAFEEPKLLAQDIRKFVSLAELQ

human EH-3 (human) = target: T4, human EH-3 (human) (UniProt Q9H6B9); experiment: as above
T4 sequence: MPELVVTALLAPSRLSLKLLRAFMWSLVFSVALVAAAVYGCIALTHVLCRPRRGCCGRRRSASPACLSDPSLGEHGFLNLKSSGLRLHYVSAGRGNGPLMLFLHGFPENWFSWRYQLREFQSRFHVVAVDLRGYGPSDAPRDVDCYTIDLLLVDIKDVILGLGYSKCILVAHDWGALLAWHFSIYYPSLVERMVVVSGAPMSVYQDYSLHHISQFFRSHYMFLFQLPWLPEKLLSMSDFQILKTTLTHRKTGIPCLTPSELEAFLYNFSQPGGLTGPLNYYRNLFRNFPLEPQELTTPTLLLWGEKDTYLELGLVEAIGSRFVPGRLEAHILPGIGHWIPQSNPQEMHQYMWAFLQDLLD

human sEH (human) = target: T5, human sEH (human) (UniProt P34913); experiment: as above
T5 sequence: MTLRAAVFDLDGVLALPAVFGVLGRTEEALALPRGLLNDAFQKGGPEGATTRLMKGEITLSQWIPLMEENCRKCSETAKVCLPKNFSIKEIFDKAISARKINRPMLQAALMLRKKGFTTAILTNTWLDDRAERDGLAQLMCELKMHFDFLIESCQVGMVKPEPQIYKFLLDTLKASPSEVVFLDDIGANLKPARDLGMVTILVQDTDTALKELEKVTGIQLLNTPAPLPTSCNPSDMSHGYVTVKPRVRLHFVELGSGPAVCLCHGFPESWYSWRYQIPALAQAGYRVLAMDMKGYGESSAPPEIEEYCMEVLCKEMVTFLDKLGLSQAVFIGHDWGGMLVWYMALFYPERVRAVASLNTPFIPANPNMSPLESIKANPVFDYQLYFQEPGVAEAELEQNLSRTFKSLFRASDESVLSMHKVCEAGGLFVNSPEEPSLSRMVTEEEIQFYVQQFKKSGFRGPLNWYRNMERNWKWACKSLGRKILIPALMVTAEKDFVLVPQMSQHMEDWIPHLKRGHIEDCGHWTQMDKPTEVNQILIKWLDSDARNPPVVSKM

human EH-4 (human) = target: T6, human EH-4 (human) (UniProt Q8IUS5); experiment: as above
T6 sequence: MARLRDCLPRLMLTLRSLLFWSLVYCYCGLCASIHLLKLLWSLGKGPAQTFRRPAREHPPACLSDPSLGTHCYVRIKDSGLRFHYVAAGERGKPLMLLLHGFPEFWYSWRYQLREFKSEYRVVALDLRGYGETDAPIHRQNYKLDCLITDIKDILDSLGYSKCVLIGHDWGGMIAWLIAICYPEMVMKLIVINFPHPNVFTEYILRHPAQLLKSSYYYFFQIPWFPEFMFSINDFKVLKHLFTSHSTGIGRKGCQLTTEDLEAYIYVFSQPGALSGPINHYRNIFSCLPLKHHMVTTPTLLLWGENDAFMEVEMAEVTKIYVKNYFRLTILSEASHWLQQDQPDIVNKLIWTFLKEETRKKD

[3] = target: T1, recombinant human microsomal epoxide …; experiment: far-Western, overlay or dot blot; Western blot: recombinant human mEH denatured, run on Mini-protean TGX gels, transferred to PVDF; nanobody as detection antibody (HRP-labelled anti-HA as tracer, or MQM8-HRP); conditions: both partners purified
[4] = target: T1, recombinant human microsomal epoxide …; experiment: ELISA; phage ELISA of randomly picked single phage clones against recombinant human mEH; conditions: one partner purified

T1 sequence (P07099 other isoform, or with tags, fused parts or gaps with the stated changes): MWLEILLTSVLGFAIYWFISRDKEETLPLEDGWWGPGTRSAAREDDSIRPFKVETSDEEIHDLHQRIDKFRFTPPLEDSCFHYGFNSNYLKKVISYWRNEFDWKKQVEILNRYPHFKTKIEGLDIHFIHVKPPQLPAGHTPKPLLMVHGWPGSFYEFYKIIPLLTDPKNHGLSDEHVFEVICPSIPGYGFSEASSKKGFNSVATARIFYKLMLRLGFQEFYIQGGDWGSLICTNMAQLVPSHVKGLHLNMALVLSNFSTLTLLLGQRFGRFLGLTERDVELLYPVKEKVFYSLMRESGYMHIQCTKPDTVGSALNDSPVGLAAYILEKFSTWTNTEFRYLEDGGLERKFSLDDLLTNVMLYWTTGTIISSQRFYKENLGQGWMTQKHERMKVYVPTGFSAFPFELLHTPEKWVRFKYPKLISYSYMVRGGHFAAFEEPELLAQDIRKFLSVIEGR
T2 sequence (P07099 whole entry): as the sequence (P07099 other isoform, or with tags, fused parts or gaps with the stated changes) above, with I452L, G454R, R455Q counted along it

B1: nanobody MQ17 (VHH)
VHH: QLQLVESGGGLVQPGGSLTLSCAASGSIFTIDALGWFRQAPGKEREFVAALPWRDGVPYYAASNKGRFSVSKDSAKNTVFKNTVFLQVNNLEPEDTAVYSCAARPWYATSTYSDSDSYGYWGQGTQVTVSS
notes: Selected from a phage library of an immunised llama; In the phage ELISA the clone stood on phage, not as the soluble purified VHH; also called VHH MQ17; source: E. coli TOP10F', purified (B-PER extraction, Ni-NTA); in the phage ELISA as a phage clone
- binding result [1]: binds

B2: nanobody MQ30 (VHH)
VHH: QVQLVESGGGVVQPGGSLRLSCVVSGSRFSLNFMGWFRQAPGKEREFVAALIWRGDVAHYAASNKGRFTVSKESAKNTVYLQLNSLEPEDTAVYSCAAQPWYSRDTYSDSDSYKYWGQGTQVTVSS
notes: Selected from a phage library of an immunised llama; In the phage ELISA the clone stood on phage, not as the soluble purified VHH; also called VHH MQ30; native VHH MQ30; source: E. coli TOP10F', purified (B-PER extraction, Ni-NTA); in the phage ELISA as a phage clone
- binding result [2]: binds
- cross-reactivity (rat mEH (rat)): 0.11%
- measured concentration at 1000 ng mL^-1 spiked (rat mEH (rat)): 1.05 ng/mL
- cross-reactivity (human EH-3 (human)): < 0.01%
- cross-reactivity (human sEH (human)): < 0.01%
- cross-reactivity (human EH-4 (human)): < 0.01%

B3: biotinylated VHH MQ30 (VHH)
VHH: QVQLVESGGGVVQPGGSLRLSCVVSGSRFSLNFMGWFRQAPGKEREFVAALIWRGDVAHYAASNKGRFTVSKESAKNTVYLQLNSLEPEDTAVYSCAAQPWYSRDTYSDSDSYKYWGQGTQVTVSS
notes: as the VHH of m4 (MQ30); also called biotinylated MQ30; source: E. coli TOP10F', purified (Ni-NTA), then biotinylated
- binding result [2]: binds

B4: nanobody MQM8 (VHH)
VHH: QLQLVESGGGFVPPGGSLRLSCAASGFIFRFVGMGRYRQAPGKQRELVASITGNDYRNYADSVKGRFTISRDNYKNTVDLQMNSLKPEDTAVYYCNRVPLDFGSWGQGTQVTVSS
notes: Selected from a phage library of an immunised llama; In the phage ELISA the clone stood on phage, not as the soluble purified VHH; also called VHH MQM8; source: E. coli TOP10F', purified (B-PER extraction, Ni-NTA); in the phage ELISA as a phage clone
- binding result [1]: binds

B5: MQM8-HRP (VHH)
VHH: QLQLVESGGGFVPPGGSLRLSCAASGFIFRFVGMGRYRQAPGKQRELVASITGNDYRNYADSVKGRFTISRDNYKNTVDLQMNSLKPEDTAVYYCNRVPLDFGSWGQGTQVTVSS
notes: as the VHH of m5 (MQM8); Named only as 'MQM8-HRP as a signal tracer'; also called HRP-labelled VHH MQM8
- binding result [3]: binds

B6: nanobody MQ4 (VHH)
VHH: QVQLVESGGGLAQPGGSLRLSCDASGSPYIINDMGWYRQAPGKQRELVASITRRGITNVADSVKGRFTISRDNAKMTVYLQMNSLKSEDTALYNCHAQPAVTPRMDYWGQGTQVTVSS
notes: Selected from a phage library of an immunised llama; In the phage ELISA the clone stood on phage, not as the soluble purified VHH; also called VHH MQ4; source: E. coli TOP10F', purified (B-PER extraction, Ni-NTA); in the phage ELISA as a phage clone
- binding result [4]: binds
